Experiment [1] deals with RLuc8β2AR (β2-adrenergic receptor fused to RLuc8, BRET donor construct). Put plainly: BRET recruitment assay, RLuc8β2AR and GFP-arrestin-3 mutant in co-transfected cells; the concentration varied is that of isoproterenol. On the technique in general: Bioluminescence resonance energy transfer reports proximity on the nanometre scale.
For experiment [2] the target is unchanged. Description: BRET recruitment assay in co-transfected cells, isoproterenol-induced.
The target is the same in experiment [3]. Description: BRET recruitment assay, RLuc8β2AR and GFP-arrestin-3 mutant in co-transfected cells, isoproterenol-induced.
Experiment [4] has the same target. Description: BRET recruitment assay in co-transfected cells; the concentration is that of isoproterenol.
For experiment [5] the target is unchanged. Put plainly: BRET recruitment assay, RLuc8β2AR and GFP-arrestin-3 in co-transfected cells; the concentration varied is that of isoproterenol.

Numbering of substitutions follows the chain as printed. In names and notes the source's numbering stands.

The text below walks through data of patent US20220106382A1.

“GFP-arrestin-3 double mutant A (SEQ ID NO: 2): T299A + I386A” returned a Potency (pEC50 of isoproterenol for recruitment of the arrestin to β2AR) in experiment [1] of 7.1 pEC50. The same molecule came in with an increase of efficacy in arrestin recruitment compared to wild-type arrestin-3 in experiment [2] of 30%. Further, the Efficacy (Emax) in %, normalized to WT in experiment [3] was found to be 132%.
Molecule “GFP-arrestin-3 WT (human wild-type arrestin-3, SEQ ID NO: 1)” showed a potency as concentration of isoproterenol for half of the total recruitment of the arrestin to β2AR in experiment [4] of 0.159 µM. The molecule also returned a Potency (pEC50 of isoproterenol for recruitment of the arrestin to β2AR) in experiment [5] of 6.8 pEC50.

B1: GFP-arrestin-3 triple mutant D (SEQ ID NO: 5): T299A + I386A + R393A (protein)
chain: MGEKPGTRVFKKSSPNCKLTVYLGKRDFVDHLDKVDPVDGVVLVDPDYLKDRKVFVTLTCAFRYGREDLDVLGLSFRKDLFIATYQAFPPVPNPPRPPTRLQDRLLRKLGQHAHPFFFTIPQNLPCSVTLQPGPEDTGKACGVDFEIRAFCAKSLEEKSHKRNSVRLVIRKVQFAPEKPGPQPSAETTRHFLMSDRSLHLEASLDKELYYHGEPLNVNVHVTNNSTKTVKKIKVSVRQYADICLFSTAQYKCPVAQLEQDDQVSPSSTFCKVYTITPLLSDNREKRGLALDGKLKHEDANLASSTIVKEGANKEVLGILVSYRVKVKLVVSRGGDVSVELPFVLMHPKPHDHIPLPRPQSAAPETDVPVDTNLIEFDTNYATDDDAVFEDFAALRLKGMKDDDYDDQLC
Molecule B1 registered a Potency (pEC50 of isoproterenol for recruitment of the arrestin to β2AR) in experiment [1] of 7.2 pEC50. The Efficacy (Emax) in %, normalized to WT in experiment [3] is 89.2%.

B2: GFP-arrestin-3 triple mutant B (SEQ ID NO: 3): T299A + I386A + R166A (protein)
chain: B1 chain with R166A, A393R
Take B2: the potency as concentration of isoproterenol for half of the total recruitment of the arrestin to β2AR in experiment [4] turned out to be 0.0501 µM. The molecule also gave a Potency (pEC50 of isoproterenol for recruitment of the arrestin to β2AR) in experiment [1] of 7.3 pEC50. The molecule further registered an Efficacy (Emax) in %, normalized to WT in experiment [3] of 103%.

B3: GFP-arrestin-3 triple mutant C (SEQ ID NO: 4): T299A + I386A + D298A (protein)
chain: B1 chain with D298A, A393R
In experiment [1], B3 registered a Potency (pEC50 of isoproterenol for recruitment of the arrestin to β2AR) of 7.2 pEC50. This molecule came in with an Efficacy (Emax) in %, normalized to WT in experiment [3] of 109%.
